According to patent publication US20160311917A1 (Novartis, published 2016):
Changes are numbered by the printed parent chain.

T1: recombinant human biotinylated mesothelin extracellular domain with C-terminal Avi-Tag (human, site selectively biotinylated in vitro with BirA enzyme at the C-terminal Avi-Tag)
T1 construct: Produced in HEK293F cells; as printed it includes a His tag and the Avi-Tag; Immobilised on a streptavidin sensor chip for SPR; also called human MSLN ECD; human mesothelin ECD
T1 chain: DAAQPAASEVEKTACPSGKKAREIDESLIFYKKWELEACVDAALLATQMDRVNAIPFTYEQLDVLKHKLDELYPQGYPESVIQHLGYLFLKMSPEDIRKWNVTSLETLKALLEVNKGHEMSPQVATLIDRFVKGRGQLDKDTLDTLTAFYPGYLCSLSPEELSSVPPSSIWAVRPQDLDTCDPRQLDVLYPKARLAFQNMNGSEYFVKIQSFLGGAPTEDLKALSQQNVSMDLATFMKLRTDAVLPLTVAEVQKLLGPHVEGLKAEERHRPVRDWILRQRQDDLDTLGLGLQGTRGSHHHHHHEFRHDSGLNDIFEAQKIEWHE

T2: Glycosylation Deficient Mesothelin (296-588; N388Q, N496Q, N523Q) (human)
T2 construct: It already carries N388Q, N496Q and N523Q; also called hMSLN296-588; human mesothelin(296-588)
T2 chain: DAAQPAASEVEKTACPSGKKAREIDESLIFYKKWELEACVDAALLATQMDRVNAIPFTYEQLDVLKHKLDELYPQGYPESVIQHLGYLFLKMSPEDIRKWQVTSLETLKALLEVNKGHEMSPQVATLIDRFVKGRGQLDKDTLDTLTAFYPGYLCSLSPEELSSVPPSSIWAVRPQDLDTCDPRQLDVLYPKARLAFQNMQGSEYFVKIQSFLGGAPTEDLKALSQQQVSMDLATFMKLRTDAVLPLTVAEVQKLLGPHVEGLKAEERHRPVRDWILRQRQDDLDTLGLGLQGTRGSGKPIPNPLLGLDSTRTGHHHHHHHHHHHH

B1: M16 scFv (human anti-mesothelin scFv, soluble, His-tagged) (scFv)
scFv: EVQLVESGGGLVQPGRSLRLSCAASGFTFDDYAMHWVRQAPGKGLEWVSGISWNSGSTGYADSVKGRFTISRDNAKNSLYLQMNSLRAEDTALYYCAKDSSSWYGGGSAFDIWGQGTMVTVSSGGGGSGGGGSGGGGSSSELTQEPAVSVALGQTVRITCQGDSLRSYYASWYQQKPGQAPVLVIFGRSRRPSGIPDRFSGSSSGNTASLIITGAQAEDEADYYCNSRDNTANHYVFGTGTKLTVLGSHHHHHHHH
notes: also called XS87-99RD
B2: M17 scFv (human anti-mesothelin scFv, soluble, His-tagged) (scFv)
scFv: EVQLVESGGGLVQPGRSLRLSCAASGFTFDDYAMHWVRQAPGKGLEWVSGISWNSGSTGYADSVKGRFTISRDNAKNSLYLQMNSLRAEDTALYYCAKDSSSWYGGGSAFDIWGQGTMVTVSSGGGGSGGGGSGGGGSSSELTQDPAVSVALGQTVRITCQGDSLRSYYASWYQQKPGQAPVLVIYGKNNRPSGIPDRFSGSSSGNTASLTITGAQAEDEADYYCNSRGSSGNHYVFGTGTKVTVLGSHHHHHHHH
notes: also called NS89-94MD
B3: M5 scFv (human anti-mesothelin scFv, soluble, His-tagged) (scFv)
scFv: QVQLVQSGAEVEKPGASVKVSCKASGYTFTDYYMHWVRQAPGQGLEWMGWINPNSGGTNYAQKFQGRVTMTRDTSISTAYMELSRLRSDDTAVYYCASGWDFDYWGQGTLVTVSSGGGGSGGGGSGGGGSGGGGSDIVMTQSPSSLSASVGDRVTITCRASQSIRYYLSWYQQKPGKAPKLLIYTASILQNGVPSRFSGSGSGTDFTLTISSLQPEDFATYYCLQTYTTPDFGPGTKVEIKGSHHHHHHHH
notes: also called scFv M5; XP31-20LC
B4: M14 scFv (human anti-mesothelin scFv, soluble, His-tagged) (scFv)
scFv: QVQLVQSGAEVRAPGASVKISCKASGFTFRGYYIHWVRQAPGQGLEWMGIINPSGGSRAYAQKFQGRVTMTRDTSTSTVYMELSSLRSDDTAMYYCARTASCGGDCYYLDYWGQGTLVTVSSGGGGSGGGGSGGGGSGGGGSDIQMTQSPPTLSASVGDRVTITCRASENVNIWLAWYQQKPGKAPKLLIYKSSSLASGVPSRFSGSGSGAEFTLTISSLQPDDFATYYCQQYQSYPLTFGGGTKVDIKGSHHHHHHHH
notes: also called BS83-95ID
B5: M11 scFv (human anti-mesothelin scFv, soluble, His-tagged) (scFv)
scFv: B3 scFv with V5Q, E12K, D31G, K63N, S84R, V138R
notes: also called NE10-19WD
B6: M12 scFv (human anti-mesothelin scFv, soluble, His-tagged) (scFv)
scFv: QVQLVQSGAEVKKPGASVKVSCKASGYTFTGYYMHWVRQAPGQGLEWMGRINPNSGGTNYAQKFQGRVTMTTDTSTSTAYMELRSLRSDDTAVYYCARTTTSYAFDIWGQGTMVTVSSGGGGSGGGGSGGGGSGGGGSDIQLTQSPSTLSASVGDRVTITCRASQSISTWLAWYQQKPGKAPNLLIYKASTLESGVPSRFSGSGSGTEFTLTISSLQPDDFATYYCQQYNTYSPYTFGQGTKLEIKGSHHHHHHHH
notes: also called DE12-14RD
B7: M21 scFv (human anti-mesothelin scFv, soluble, His-tagged) (scFv)
scFv: QVQLVQSWAEVKKPGASVKVSCKASGYTFTSYYMHWVRQAPGQGLEWMGIINPSGGSTSYAQKFQGRVTMTRDTSTSTVYMELSNLRSEDTAVYYCARSPRVTTGYFDYWGQGTLVTVSSGGGGSGGGGSGGGGSGGGGSDIQLTQSPSTLSASVGDRVTITCRASQSISSWLAWYQQKPGKAPKLLIYKASSLESGVPSRFSGSGSGTEFTLTISSLQPDDFATYYCQQYSSYPLTFGGGTRLEIKGSHHHHHHHH
notes: also called MM21; ZS95-03QD
B8: M23 scFv (human anti-mesothelin scFv, soluble, His-tagged) (scFv)
scFv: QVQLQQSGAEVKKPGASVKVSCKASGYTFTNYYMHWVRQAPGQGLEWMGIINPSGGYTTYAQKFQGRLTMTRDTSTSTVYMELSSLRSEDTAVYYCARIRSCGGDCYYFDNWGQGTLVTVSSGGGGSGGGGSGGGGSGGGGSDIQLTQSPSTLSASVGDRVTITCRASENVNIWLAWYQQKPGKAPKLLIYKSSSLASGVPSRFSGSGSGAEFTLTISSLQPDDFATYYCQQYQSYPLTFGGGTKVDIKGSHHHHHHHH
notes: also called XH66-84HE

Molecular target: T1, recombinant human biotinylated …
Experiment: SPR, Biacore T200; biotinylated mesothelin ECD on streptavidin chip, scFv injected; 1:1 binding model
Description: (§1) Binding affinity of purified scFvs was measured on a Biacore T200 system. Briefly, recombinant human biotinylated mesothelin ECD was immobilized on a streptavidin (SA) sensor chip surface at a density of 150 RU. Purified scFv was injected over the chip under constant flow rate at three-fold serial dilutions. Association and dissociation rates of the protein complex were monitored for 270 seconds and 400 seconds, respectively. Double referencing was performed against a blank immobilized flow cell and a buffer blank. Affinity was determined with a Langmuir 1:1 binding model when possible, for those scFVs where accurate fitting was not possible due to fast on and off rates, the steady state model was used.

| Kd | koff | kon | Binder |
| --- | --- | --- | --- |
| 22.7 nM | 0.00395 s⁻¹ | 174000 M⁻¹ s⁻¹ | B1 |
| 27.8 nM | 0.0145 s⁻¹ | 522000 M⁻¹ s⁻¹ | B2 |
| 26.9 nM | 0.00113 s⁻¹ | 42000 M⁻¹ s⁻¹ | B3 |
| 0.9 nM | 0.00251 s⁻¹ | 2.75e+06 M⁻¹ s⁻¹ | B4 |

Molecular target: T1, recombinant human biotinylated …
Experiment: SPR, Biacore T200; biotinylated mesothelin ECD on streptavidin chip, scFv injected; steady state affinity model
Description: as §1

| Kd | Binder |
| --- | --- |
| 64.7 nM | B5 |
| 307 nM | B6 |
| 110 nM | B7 |
| 114 nM | B8 |

Molecular target: T2, Glycosylation Deficient Mesothelin …
Experiment: Hydrogen-deuterium exchange mass spectrometry: difference in deuterium uptake of the co-expressed complex against unbound mesothelin, peptides 456-586
Description: For hMSLN₂₉₆₋₅₈₈ deuterium labeling experiments in the absence of antibody, 400 pmol of hMSLN₂₉₆₋₅₈₈, volume of 6.9 was diluted using 100 μl of the deuterium buffer for 15 minutes at 4° C. The labeling reaction was then quenched with 100 μl of chilled quench buffer at 2° C. for three minutes followed by injected onto the LC-MS system for automated pepsin digestion and peptide analysis.
The labeling reaction was then quenched with 100 μl of chilled quench buffer at 2° C. for three minutes followed by injected onto the LC-MS system for automated pepsin digestion and peptide analysis. […] The labeling reaction was then quenched with 100 μl of chilled quench buffer at 2° C. for three minutes, and then injected onto the LC-MS system for automated pepsin digestion and peptide analysis.
All deuterium exchange experiments were quenched using 0.5 M TCEP and 3 M urea (pH=2.6). After quenching, the exchanged antigen was subjected to on-line pepsin digestion using a Poroszyme Immobilized Pepsin column (2.1×30 mm) at 12° C. followed by trapping on a Waters Vanguard HSS T3 trapping column.

| binding result | Binder |
| --- | --- |
| binds | B3 |
